The values below come from the Human Domainome abundance scans (Beltran et al. 2025).

± gives the uncertainty stated by the source.

The labels stand for the following.
B1: Intersectin-1, residues 1156 to 1213; numbered along this chain, Q15811 (parent)
chain: AVCQVIGMYDYTAQNDDELAFNKGQIINVLNKEDPDWWKGEVNGQVGLFPSNYVKLTT

The variants in this data set derive from B1. Description: abundance fitness (aPCA) (normalised: wild type 0, dead -1); higher = more abundant; growth selection in yeast, the domain comes from the species named. The conditions noted are these: Homo sapiens.
Take AVCQVIGMYDYTAQNHDELAFNKGQIINVLNKEDPDWWKGEVNGQVGLFPSNYVKLTT: the abundance fitness is -0.614 ± 0.2.
Consider AVCQVIGMYDYTAQNTDELAFNKGQIINVLNKEDPDWWKGEVNGQVGLFPSNYVKLTT, for which the abundance fitness was -0.232 ± 0.11.
With AVCQVIGMYDYTAQNWDELAFNKGQIINVLNKEDPDWWKGEVNGQVGLFPSNYVKLTT, the abundance fitness is -0.726 ± 0.12.
With AVCQVIGMYDYTAQVDDELAFNKGQIINVLNKEDPDWWKGEVNGQVGLFPSNYVKLTT, the abundance fitness is -0.639 ± 0.1.
On to AVCQVIGMYDYTAQLDDELAFNKGQIINVLNKEDPDWWKGEVNGQVGLFPSNYVKLTT, for which the abundance fitness was -0.612 ± 0.087.
Consider AVCQVIGMYDYTAQADDELAFNKGQIINVLNKEDPDWWKGEVNGQVGLFPSNYVKLTT, for which the abundance fitness was -0.131 ± 0.095.
With AVCQVIGMYDYTAQSDDELAFNKGQIINVLNKEDPDWWKGEVNGQVGLFPSNYVKLTT the figure was 0.085 ± 0.096; with AVCQVIGMYDYTAQGDDELAFNKGQIINVLNKEDPDWWKGEVNGQVGLFPSNYVKLTT, 0.047 ± 0.085.
As for AVCQVIGMYDYTAQKDDELAFNKGQIINVLNKEDPDWWKGEVNGQVGLFPSNYVKLTT, the abundance fitness stood at 0.047 ± 0.11.
The value for AVCQVIGMYDYTAQTDDELAFNKGQIINVLNKEDPDWWKGEVNGQVGLFPSNYVKLTT was 0.024 ± 0.12.
Consider AVCQVIGMYDYTAQDDDELAFNKGQIINVLNKEDPDWWKGEVNGQVGLFPSNYVKLTT, for which the abundance fitness is -0.185 ± 0.14.
Take AVCQVIGMYDYTAQRDDELAFNKGQIINVLNKEDPDWWKGEVNGQVGLFPSNYVKLTT: the abundance fitness turned out to be 0.038 ± 0.075.
For AVCQVIGMYDYTAQPDDELAFNKGQIINVLNKEDPDWWKGEVNGQVGLFPSNYVKLTT, the abundance fitness is -0.964 ± 0.17.
In the case of AVCQVIGMYDYTAQWDDELAFNKGQIINVLNKEDPDWWKGEVNGQVGLFPSNYVKLTT, the abundance fitness was -0.635 ± 0.12.
For the variant AVCQVIGMYDYTAQIDDELAFNKGQIINVLNKEDPDWWKGEVNGQVGLFPSNYVKLTT, the abundance fitness is -0.664 ± 0.25.
As to AVCQVIGMYDYTAQFDDELAFNKGQIINVLNKEDPDWWKGEVNGQVGLFPSNYVKLTT, the abundance fitness was -0.539 ± 0.21.
On to AVCQVIGMYDYTAQHDDELAFNKGQIINVLNKEDPDWWKGEVNGQVGLFPSNYVKLTT, for which the abundance fitness was -0.433 ± 0.16.
Take AVCQVIGMYDYTAQQDDELAFNKGQIINVLNKEDPDWWKGEVNGQVGLFPSNYVKLTT: the abundance fitness was -0.185 ± 0.1.
In the case of AVCQVIGMYDYTAQEDDELAFNKGQIINVLNKEDPDWWKGEVNGQVGLFPSNYVKLTT, the abundance fitness was -0.17 ± 0.11.
For AVCQVIGMYDYTAENDDELAFNKGQIINVLNKEDPDWWKGEVNGQVGLFPSNYVKLTT, the abundance fitness is -0.122 ± 0.18.
The value for AVCQVIGMYDYTAYNDDELAFNKGQIINVLNKEDPDWWKGEVNGQVGLFPSNYVKLTT was -0.922 ± 0.26; that for AVCQVIGMYDYTAINDDELAFNKGQIINVLNKEDPDWWKGEVNGQVGLFPSNYVKLTT was -0.58 ± 0.19; that for AVCQVIGMYDYTAKNDDELAFNKGQIINVLNKEDPDWWKGEVNGQVGLFPSNYVKLTT was 0.161 ± 0.14.
Turning to AVCQVIGMYDYTADNDDELAFNKGQIINVLNKEDPDWWKGEVNGQVGLFPSNYVKLTT, the abundance fitness is -0.285 ± 0.2.
Take AVCQVIGMYDYTAVNDDELAFNKGQIINVLNKEDPDWWKGEVNGQVGLFPSNYVKLTT: the abundance fitness is -0.263 ± 0.12.
With AVCQVIGMYDYTAANDDELAFNKGQIINVLNKEDPDWWKGEVNGQVGLFPSNYVKLTT, the abundance fitness was -0.267 ± 0.15.
The value for AVCQVIGMYDYTATNDDELAFNKGQIINVLNKEDPDWWKGEVNGQVGLFPSNYVKLTT was -0.255 ± 0.11; that for AVCQVIGMYDYTAGNDDELAFNKGQIINVLNKEDPDWWKGEVNGQVGLFPSNYVKLTT was -0.186 ± 0.099.
Regarding AVCQVIGMYDYTAWNDDELAFNKGQIINVLNKEDPDWWKGEVNGQVGLFPSNYVKLTT, the abundance fitness is -0.723 ± 0.12.
With AVCQVIGMYDYTAHNDDELAFNKGQIINVLNKEDPDWWKGEVNGQVGLFPSNYVKLTT the figure was -0.505 ± 0.22.
In the case of AVCQVIGMYDYTALNDDELAFNKGQIINVLNKEDPDWWKGEVNGQVGLFPSNYVKLTT, the abundance fitness is -0.441 ± 0.087.
The value for AVCQVIGMYDYTARNDDELAFNKGQIINVLNKEDPDWWKGEVNGQVGLFPSNYVKLTT was 0.038 ± 0.073; that for AVCQVIGMYDYTACNDDELAFNKGQIINVLNKEDPDWWKGEVNGQVGLFPSNYVKLTT was -0.582 ± 0.16.
For the variant AVCQVIGMYDYTAPNDDELAFNKGQIINVLNKEDPDWWKGEVNGQVGLFPSNYVKLTT, the abundance fitness is -0.844 ± 0.14.
In the case of AVCQVIGMYDYTAMNDDELAFNKGQIINVLNKEDPDWWKGEVNGQVGLFPSNYVKLTT, the abundance fitness was -0.284 ± 0.13.
AVCQVIGMYDMTAQNDDELAFNKGQIINVLNKEDPDWWKGEVNGQVGLFPSNYVKLTT: the abundance fitness was -0.698 ± 0.18.
In the case of AVCQVIGMYDSTAQNDDELAFNKGQIINVLNKEDPDWWKGEVNGQVGLFPSNYVKLTT, the abundance fitness was -0.769 ± 0.13.
On to AVCQVIGMYDVTAQNDDELAFNKGQIINVLNKEDPDWWKGEVNGQVGLFPSNYVKLTT, for which the abundance fitness was -0.765 ± 0.12.
With AVCQVIGMYDNTAQNDDELAFNKGQIINVLNKEDPDWWKGEVNGQVGLFPSNYVKLTT, the abundance fitness was -0.937 ± 0.29.
For AVCQVIGMYDPTAQNDDELAFNKGQIINVLNKEDPDWWKGEVNGQVGLFPSNYVKLTT, the abundance fitness is -0.759 ± 0.16.
Take AVCQVIGMYDTTAQNDDELAFNKGQIINVLNKEDPDWWKGEVNGQVGLFPSNYVKLTT: the abundance fitness was -0.555 ± 0.19.
Take AVCQVIGMYDQTAQNDDELAFNKGQIINVLNKEDPDWWKGEVNGQVGLFPSNYVKLTT: the abundance fitness is -0.692 ± 0.22.
As for AVCQVIGMYDRTAQNDDELAFNKGQIINVLNKEDPDWWKGEVNGQVGLFPSNYVKLTT, the abundance fitness is -0.374 ± 0.084.
Consider AVCQVIGMYDWTAQNDDELAFNKGQIINVLNKEDPDWWKGEVNGQVGLFPSNYVKLTT, for which the abundance fitness was -0.932 ± 0.17.
On to AVCQVIGMYDYTAQNDCELAFNKGQIINVLNKEDPDWWKGEVNGQVGLFPSNYVKLTT, for which the abundance fitness is -0.344 ± 0.17.
Turning to AVCQVIGMYDYTAQNDEELAFNKGQIINVLNKEDPDWWKGEVNGQVGLFPSNYVKLTT, the abundance fitness is -0.03 ± 0.12.
